# Measured values: US20240360176A1 (MARSHALL UNIVERSITY RESEARCH, published 2024)
# Target: Src kinase (human, endogenous in the HCC cell lines HEP3B and SNU475) (human, UniProt P12931 2-536, phosphorylation read out with a polyclonal antibody to Tyr419 of Src kinase)
# Assay: cell-based or functional assay
binder,measurement,value
pNaKtide (peptide) peptide: not shown,"cell proliferation (MTT assay), IC50, Hep3 cells",62.5 µM
same,"cell proliferation (MTT assay), IC50, SNU475 cells",6 µM
